Several values for one entry are separate records, joined by “and”; a condition that tells them apart may be missing. Identical values can stand only once.
Assays:
Test in all cases: cell-based or functional assay
[1] = target: recombinant soluble human RANKL (human) (UniProt O14788)
[2] = target: soluble mouse RANKL (mouse) (UniProt O35235)
[3] = target: T1, mouse RANK on murine bone marrow cells (mouse, UniProt O35305 31-625)
T1 sequence (looked up): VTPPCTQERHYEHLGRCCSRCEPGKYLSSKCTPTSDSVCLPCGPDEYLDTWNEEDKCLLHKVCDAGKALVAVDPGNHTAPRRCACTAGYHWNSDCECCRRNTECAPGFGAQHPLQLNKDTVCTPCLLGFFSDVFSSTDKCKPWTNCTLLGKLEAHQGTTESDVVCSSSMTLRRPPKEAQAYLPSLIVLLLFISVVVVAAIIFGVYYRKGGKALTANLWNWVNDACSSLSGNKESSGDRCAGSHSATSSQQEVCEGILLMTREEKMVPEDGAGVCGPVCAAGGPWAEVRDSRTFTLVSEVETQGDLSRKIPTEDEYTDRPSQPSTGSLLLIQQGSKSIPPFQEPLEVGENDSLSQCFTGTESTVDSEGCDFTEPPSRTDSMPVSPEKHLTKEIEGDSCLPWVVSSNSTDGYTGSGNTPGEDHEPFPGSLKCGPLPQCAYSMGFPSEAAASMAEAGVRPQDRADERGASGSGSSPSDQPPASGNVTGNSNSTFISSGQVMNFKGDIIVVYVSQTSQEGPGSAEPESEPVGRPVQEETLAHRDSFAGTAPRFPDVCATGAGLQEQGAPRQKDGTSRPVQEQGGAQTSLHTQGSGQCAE

soluble mouse RANKL (mouse), sequence (O35235 143-316 limits assumed): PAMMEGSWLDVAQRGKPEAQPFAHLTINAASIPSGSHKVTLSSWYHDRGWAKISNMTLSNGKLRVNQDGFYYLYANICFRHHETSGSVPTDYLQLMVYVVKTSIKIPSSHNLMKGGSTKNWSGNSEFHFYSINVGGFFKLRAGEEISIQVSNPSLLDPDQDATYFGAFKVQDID
recombinant soluble human RANKL (human), sequence (O14788 143-317 limits assumed): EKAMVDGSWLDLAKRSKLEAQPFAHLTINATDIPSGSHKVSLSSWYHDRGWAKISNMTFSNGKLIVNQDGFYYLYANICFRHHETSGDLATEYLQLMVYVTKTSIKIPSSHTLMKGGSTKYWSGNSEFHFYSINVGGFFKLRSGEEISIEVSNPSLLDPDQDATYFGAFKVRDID

“RANK-Fc (positive control in osteoclast assay) (Fc fusion)” was tested, and the IC50, huRANKL-induced osteoclast formation (TRAP+ multinucleated cells) [1] was 0.092 µg/mL and the concentration for complete block of huRANKL-induced osteoclast formation [1] was 500 ng/mL and 1000 ng/mL.

B1: anti-muRANKL IK22-5 mAb (antibody, from a related filing, V domains shown)
VH: QVQLKESGPGLVLSSATLSLTCTVSGFSLTNYDVSWIRHLPGKGLEWMGGVWLSGNTEYNSDFKSRLSISRDISKSQVFLKMSNLKIEDTGTYYCARDIGTTSDYWGQGVTVTVSS
VL: DIQVTQSPSFLSASVGDRVTFNCKTSQNINKYLAWYQAKFGEGPKLLIFNADSLQSGIPPRFSGSGSGTDFTLTISGLQPEDFATYFCLQYNSWPTFGSGTKLEIK
Molecule B1 has an IC50, muRANKL-induced osteoclast formation (TRAP+ multinucleated cells) [2] of 0.0198 µg/mL and a concentration for complete block of muRANKL-induced osteoclast formation [2] of 62.5 to 125 ng/mL.

B2: anti-RANK 3A3 antibody (full-length IgG, human Fab on a mouse IgG2a Fc backbone) (antibody, V domains shown)
VH: EVQLVESGGGVVQPGTSLRLSCAASGFTFSSYAMHWVRQAPGKGLEWVAVVSYDGSTKSYADSMKGRFTISRDNSKNTLYLQMNSLRAEDTAVYYCAKDPALRYFDWGYFQHWGQGTLVTVSS
VL: SYELTQPPSVSVSPGQTASITCSGDKLGDKYVCWYQQKPGQSPVLVIYGDSERPSGIPERFSGSNSGNTATLTISGTRAVDEADYYCQAWDSTTPLFGGGTNLTVL
In the case of B2, the “IC50, huRANKL-induced osteoclast formation (TRAP+ multinucleated cells)” value [3] is reported as 0.0035 µg/mL, the “IC50, muRANKL-induced osteoclast formation (TRAP+ multinucleated cells)” value [3] is reported as 0.0074 µg/mL and the “potency ratio from IC50s, huRANKL-induced osteoclast formation” value [3] is reported as roughly 25 fold. For the same molecule, the “potency ratio from IC50s, muRANKL-induced osteoclast formation” value [3] was roughly 2 fold.
